Measured values taken from US20210087238A1, “CELL PENETRATING PEPTIDES AND RELATED COMPOSITIONS AND METHODS” (Phylogica Limited, priority 2017, published 2021).
Entries after “also recorded” stand apart in the source; their conditions may differ.

Experiments:
[1] = tested on: AMO-1 (plasmacytoma); experiment: Omomyc cell viability assay, ATP activity; assay type: cell-based; settings: AMO-1 cells only
Description: (§1) Treatment of (A) AMO-1 (plasmacytoma), (B) HL-60 (promyelocytic leukemia), and (C) T47D (breast cancer) cell lines with FPP-1.1_Omomyc protein. After 48 h incubation, cell viability was assessed by measuring ATP activity. […] Results are representative of two independent experiments. Error bars represent standard deviation from the mean of duplicate samples.
(§2) All assays followed manufacturer's instructions.

[2] = tested on: AMO-1, HL-60, and T47D cell lines; experiment: Omomyc cell viability assay, statements made for all three cell lines together; assay type: cell-based; settings: 48 h; ATP activity; AMO-1, HL-60, T47D
Description: as §1
Treatment of AMO-1 (plasmacytoma), HL-60 (promyelocytic leukemia), and T47D (breast cancer) cell lines with FPP1.1_Omomyc or small molecule inhibitors. After a 48 h incubation, the cell viability was assessed by measuring ATP activity. […] Results are from one independent experiment. Error bars represent standard deviation from the mean of duplicate samples.
as §2

B1: Omomyc: Myc dominant negative peptide (protein)
chain: GPGGSGTGATSDTEENVKRRTHNVLERQRRNELKRSFFALRDQIPELENNEKAPKVVILKKATAYILSVQAETQKLISEIDLLRKQNEQLKHKLEQLRNSCA
modifications: Amino acid sequence of Omomyc
notes: Myc dominant negative peptide
For B1, the “doses at which a slight reduction in cell viability was seen” value [1] was “above 10 μM” and the “effect on cell viability” value [2] was “no effect on cell viability; also recorded: poor potency; also recorded: minor effect on cell viability only at the highest concentrations”.
